For eleven molecules, IC50 results are on record in US20160272683A1 (Novo Nordisk, published 2016).

The target in the assay is T1, human amylin receptor (human calcitonin receptor + human RAMP3) (human) (UniProt P30988).
T1 sequence (looked up) 1: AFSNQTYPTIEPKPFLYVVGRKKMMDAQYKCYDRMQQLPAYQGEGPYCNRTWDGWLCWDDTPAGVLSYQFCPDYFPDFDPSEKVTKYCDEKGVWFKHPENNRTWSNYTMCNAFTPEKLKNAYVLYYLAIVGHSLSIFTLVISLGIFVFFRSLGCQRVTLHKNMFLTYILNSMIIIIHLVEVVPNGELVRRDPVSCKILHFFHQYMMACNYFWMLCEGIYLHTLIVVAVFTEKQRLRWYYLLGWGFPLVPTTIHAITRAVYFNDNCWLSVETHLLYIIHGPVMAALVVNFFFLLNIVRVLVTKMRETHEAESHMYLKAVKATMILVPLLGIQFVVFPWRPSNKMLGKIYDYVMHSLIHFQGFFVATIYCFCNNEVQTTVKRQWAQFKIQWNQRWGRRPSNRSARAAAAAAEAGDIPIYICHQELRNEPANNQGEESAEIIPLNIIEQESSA
T1 sequence (looked up) 2: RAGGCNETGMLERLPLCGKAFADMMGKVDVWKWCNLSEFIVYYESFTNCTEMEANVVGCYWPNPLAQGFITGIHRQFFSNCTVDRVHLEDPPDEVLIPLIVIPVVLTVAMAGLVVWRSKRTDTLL
The experiment in a line: whole-cell competition vs 125I-rat amylin (Assay Va).

Numbered stars: 1 amine (or outer) side, 2 acyl side, 3 side chain; on linkers, the order of the positions; unused ones are H or OH. * marks the point of attachment. C20 diacid = O=C(O)CCCCCCCCCCCCCCCCCCC(=O)*; C18 diacid = O=C(O)CCCCCCCCCCCCCCCCC(=O)*; γGlu = O=C(O)[C@H](CCC(=O)[*:2])N[*:1]

With {C18 diacid-γGlu}-ASEVSTAVLGRLSAELHELATLPRTETGSGSP-NH2 [[N-terminal(C18 diacid-gGlu), des1, 5V, 9V, 30S, 31G]mimylin], the IC50 came to 0.812 nM.

B1: [N-terminal(C20 diacid-gGlu), des1, 23Y, 30S, 31G, 34K, C-terminal(-)]mimylin (peptide)
peptide: {C20 diacid-γGlu}-ASELSTAALGRLSAELHELATYPRTETGSGSPK-OH
SMILES: CC(C)C[C@H](NC(=O)[C@H](C)NC(=O)[C@H](C)NC(=O)[C@@H](NC(=O)[C@H](CO)NC(=O)[C@H](CC(C)C)NC(=O)[C@H](CCC(=O)O)NC(=O)[C@H](CO)NC(=O)[C@H](C)NC(=O)CC[C@H](NC(=O)CCCCCCCCCCCCCCCCCCC(=O)O)C(=O)O)[C@@H](C)O)C(=O)NCC(=O)N[C@@H](CCCNC(=N)N)C(=O)N[C@@H](CC(C)C)C(=O)N[C@@H](CO)C(=O)N[C@@H](C)C(=O)N[C@@H](CCC(=O)O)C(=O)N[C@@H](CC(C)C)C(=O)N[C@@H](Cc1c[nH]cn1)C(=O)N[C@@H](CCC(=O)O)C(=O)N[C@@H](CC(C)C)C(=O)N[C@@H](C)C(=O)N[C@H](C(=O)N[C@@H](Cc1ccc(O)cc1)C(=O)N1CCC[C@H]1C(=O)N[C@@H](CCCNC(=N)N)C(=O)N[C@H](C(=O)N[C@@H](CCC(=O)O)C(=O)N[C@H](C(=O)NCC(=O)N[C@@H](CO)C(=O)NCC(=O)N[C@@H](CO)C(=O)N1CCC[C@H]1C(=O)N[C@@H](CCCCN)C(=O)O)[C@@H](C)O)[C@@H](C)O)[C@@H](C)O
Turning to B1, the half-inhibitory concentration (IC50) stood at 21 nM.

B2: [N-terminal(C18 diacid-gGlu), des1, 4Q, 16Q, 30S, 31G]mimylin (peptide)
peptide: {C18 diacid-γGlu}-ASQLSTAALGRLSAQLHELATLPRTETGSGSP-NH2
SMILES: CC(C)C[C@H](NC(=O)[C@H](C)NC(=O)[C@H](C)NC(=O)[C@@H](NC(=O)[C@H](CO)NC(=O)[C@H](CC(C)C)NC(=O)[C@H](CCC(N)=O)NC(=O)[C@H](CO)NC(=O)[C@H](C)NC(=O)CC[C@H](NC(=O)CCCCCCCCCCCCCCCCC(=O)O)C(=O)O)[C@@H](C)O)C(=O)NCC(=O)N[C@@H](CCCNC(=N)N)C(=O)N[C@@H](CC(C)C)C(=O)N[C@@H](CO)C(=O)N[C@@H](C)C(=O)N[C@@H](CCC(N)=O)C(=O)N[C@@H](CC(C)C)C(=O)N[C@@H](Cc1c[nH]cn1)C(=O)N[C@@H](CCC(=O)O)C(=O)N[C@@H](CC(C)C)C(=O)N[C@@H](C)C(=O)N[C@H](C(=O)N[C@@H](CC(C)C)C(=O)N1CCC[C@H]1C(=O)N[C@@H](CCCNC(=N)N)C(=O)N[C@H](C(=O)N[C@@H](CCC(=O)O)C(=O)N[C@H](C(=O)NCC(=O)N[C@@H](CO)C(=O)NCC(=O)N[C@@H](CO)C(=O)N1CCC[C@H]1C(N)=O)[C@@H](C)O)[C@@H](C)O)[C@@H](C)O
As for B2, the 50% inhibitory concentration (IC50) came out at 0.428 nM.
Regarding {C18 diacid-γGlu}-ASELTTAVLGRLSAELHELATLPRTETGSGTP-NH2 [[N-terminal(C18 diacid-gGlu), des1, 6T, 9V, 30S, 31G, 32T]mimylin], the 50% inhibitory concentration (IC50) was 0.652 nM.
The value for {C20 diacid-γGlu}-ASELSTAALGRLSAELHELATYPRTETGSGSY-OH [[N-terminal(C20 diacid-gGlu), des1, 23Y, 30S, 31G, 33Y, C-terminal(-)]mimylin] was 92 nM.

B3: [N-terminal(C20 diacid-gGlu), des1, 9T, 21S, 23Y, 30S, 31G]mimylin (peptide)
peptide: {C20 diacid-γGlu}-ASELSTATLGRLSAELHELSTYPRTETGSGSP-NH2
SMILES: CC(C)C[C@H](NC(=O)[C@H](CCCNC(=N)N)NC(=O)CNC(=O)[C@H](CC(C)C)NC(=O)[C@@H](NC(=O)[C@H](C)NC(=O)[C@@H](NC(=O)[C@H](CO)NC(=O)[C@H](CC(C)C)NC(=O)[C@H](CCC(=O)O)NC(=O)[C@H](CO)NC(=O)[C@H](C)NC(=O)CC[C@H](NC(=O)CCCCCCCCCCCCCCCCCCC(=O)O)C(=O)O)[C@@H](C)O)[C@@H](C)O)C(=O)N[C@@H](CO)C(=O)N[C@@H](C)C(=O)N[C@@H](CCC(=O)O)C(=O)N[C@@H](CC(C)C)C(=O)N[C@@H](Cc1c[nH]cn1)C(=O)N[C@@H](CCC(=O)O)C(=O)N[C@@H](CC(C)C)C(=O)N[C@@H](CO)C(=O)N[C@H](C(=O)N[C@@H](Cc1ccc(O)cc1)C(=O)N1CCC[C@H]1C(=O)N[C@@H](CCCNC(=N)N)C(=O)N[C@H](C(=O)N[C@@H](CCC(=O)O)C(=O)N[C@H](C(=O)NCC(=O)N[C@@H](CO)C(=O)NCC(=O)N[C@@H](CO)C(=O)N1CCC[C@H]1C(N)=O)[C@@H](C)O)[C@@H](C)O)[C@@H](C)O
As to B3, the IC50 is 2.61 nM.

B4: [N-terminal(C20 diacid-gGlu), des1, 23Y, 30S, 31G, 34G, C-terminal(-)]mimylin (peptide)
peptide: {C20 diacid-γGlu}-ASELSTAALGRLSAELHELATYPRTETGSGSPG-OH
SMILES: CC(C)C[C@H](NC(=O)[C@H](C)NC(=O)[C@H](C)NC(=O)[C@@H](NC(=O)[C@H](CO)NC(=O)[C@H](CC(C)C)NC(=O)[C@H](CCC(=O)O)NC(=O)[C@H](CO)NC(=O)[C@H](C)NC(=O)CC[C@H](NC(=O)CCCCCCCCCCCCCCCCCCC(=O)O)C(=O)O)[C@@H](C)O)C(=O)NCC(=O)N[C@@H](CCCNC(=N)N)C(=O)N[C@@H](CC(C)C)C(=O)N[C@@H](CO)C(=O)N[C@@H](C)C(=O)N[C@@H](CCC(=O)O)C(=O)N[C@@H](CC(C)C)C(=O)N[C@@H](Cc1c[nH]cn1)C(=O)N[C@@H](CCC(=O)O)C(=O)N[C@@H](CC(C)C)C(=O)N[C@@H](C)C(=O)N[C@H](C(=O)N[C@@H](Cc1ccc(O)cc1)C(=O)N1CCC[C@H]1C(=O)N[C@@H](CCCNC(=N)N)C(=O)N[C@H](C(=O)N[C@@H](CCC(=O)O)C(=O)N[C@H](C(=O)NCC(=O)N[C@@H](CO)C(=O)NCC(=O)N[C@@H](CO)C(=O)N1CCC[C@H]1C(=O)NCC(=O)O)[C@@H](C)O)[C@@H](C)O)[C@@H](C)O
Turning to B4, the IC50 was 7.26 nM.

B5: [N-terminal(C20 diacid-gGlu), des1, 12H, 25H, 30T, 31G, 32T]mimylin (peptide)
peptide: {C20 diacid-γGlu}-ASELSTAALGHLSAELHELATLPHTETGTGTP-NH2
SMILES: CC(C)C[C@H](NC(=O)[C@H](C)NC(=O)[C@H](C)NC(=O)[C@@H](NC(=O)[C@H](CO)NC(=O)[C@H](CC(C)C)NC(=O)[C@H](CCC(=O)O)NC(=O)[C@H](CO)NC(=O)[C@H](C)NC(=O)CC[C@H](NC(=O)CCCCCCCCCCCCCCCCCCC(=O)O)C(=O)O)[C@@H](C)O)C(=O)NCC(=O)N[C@@H](Cc1c[nH]cn1)C(=O)N[C@@H](CC(C)C)C(=O)N[C@@H](CO)C(=O)N[C@@H](C)C(=O)N[C@@H](CCC(=O)O)C(=O)N[C@@H](CC(C)C)C(=O)N[C@@H](Cc1c[nH]cn1)C(=O)N[C@@H](CCC(=O)O)C(=O)N[C@@H](CC(C)C)C(=O)N[C@@H](C)C(=O)N[C@H](C(=O)N[C@@H](CC(C)C)C(=O)N1CCC[C@H]1C(=O)N[C@@H](Cc1c[nH]cn1)C(=O)N[C@H](C(=O)N[C@@H](CCC(=O)O)C(=O)N[C@H](C(=O)NCC(=O)N[C@H](C(=O)NCC(=O)N[C@H](C(=O)N1CCC[C@H]1C(N)=O)[C@@H](C)O)[C@@H](C)O)[C@@H](C)O)[C@@H](C)O)[C@@H](C)O
With B5, the IC50 turned out to be 1.51 nM.

B6: [N-terminal(C20 diacid-gGlu), des1, 21S, 23Y, 30S, 31G, 33Y]mimylin (peptide)
peptide: {C20 diacid-γGlu}-ASELSTAALGRLSAELHELSTYPRTETGSGSY-NH2
SMILES: CC(C)C[C@H](NC(=O)[C@H](C)NC(=O)[C@H](C)NC(=O)[C@@H](NC(=O)[C@H](CO)NC(=O)[C@H](CC(C)C)NC(=O)[C@H](CCC(=O)O)NC(=O)[C@H](CO)NC(=O)[C@H](C)NC(=O)CC[C@H](NC(=O)CCCCCCCCCCCCCCCCCCC(=O)O)C(=O)O)[C@@H](C)O)C(=O)NCC(=O)N[C@@H](CCCNC(=N)N)C(=O)N[C@@H](CC(C)C)C(=O)N[C@@H](CO)C(=O)N[C@@H](C)C(=O)N[C@@H](CCC(=O)O)C(=O)N[C@@H](CC(C)C)C(=O)N[C@@H](Cc1c[nH]cn1)C(=O)N[C@@H](CCC(=O)O)C(=O)N[C@@H](CC(C)C)C(=O)N[C@@H](CO)C(=O)N[C@H](C(=O)N[C@@H](Cc1ccc(O)cc1)C(=O)N1CCC[C@H]1C(=O)N[C@@H](CCCNC(=N)N)C(=O)N[C@H](C(=O)N[C@@H](CCC(=O)O)C(=O)N[C@H](C(=O)NCC(=O)N[C@@H](CO)C(=O)NCC(=O)N[C@@H](CO)C(=O)N[C@@H](Cc1ccc(O)cc1)C(N)=O)[C@@H](C)O)[C@@H](C)O)[C@@H](C)O
As for B6, the IC50 came out at 0.186 nM.
For the molecule {C18 diacid-γGlu}-ASELTTAVLGRLSAELHELATLPRTETGTGTP-NH2 [[N-terminal(C18 diacid-gGlu), des1, 6T, 9V, 30T, 31G, 32T]mimylin], the IC50 was determined as 2.15 nM.

B7: [N-terminal(C18 diacid-gGlu), des1, 5V, 9V, 10V, 30S, 31G]mimylin (peptide)
peptide: {C18 diacid-γGlu}-ASEVSTAVVGRLSAELHELATLPRTETGSGSP-NH2
SMILES: CC(C)C[C@H](NC(=O)[C@H](CCC(=O)O)NC(=O)[C@H](Cc1c[nH]cn1)NC(=O)[C@H](CC(C)C)NC(=O)[C@H](CCC(=O)O)NC(=O)[C@H](C)NC(=O)[C@H](CO)NC(=O)[C@H](CC(C)C)NC(=O)[C@H](CCCNC(=N)N)NC(=O)CNC(=O)[C@@H](NC(=O)[C@@H](NC(=O)[C@H](C)NC(=O)[C@@H](NC(=O)[C@H](CO)NC(=O)[C@@H](NC(=O)[C@H](CCC(=O)O)NC(=O)[C@H](CO)NC(=O)[C@H](C)NC(=O)CC[C@H](NC(=O)CCCCCCCCCCCCCCCCC(=O)O)C(=O)O)C(C)C)[C@@H](C)O)C(C)C)C(C)C)C(=O)N[C@@H](C)C(=O)N[C@H](C(=O)N[C@@H](CC(C)C)C(=O)N1CCC[C@H]1C(=O)N[C@@H](CCCNC(=N)N)C(=O)N[C@H](C(=O)N[C@@H](CCC(=O)O)C(=O)N[C@H](C(=O)NCC(=O)N[C@@H](CO)C(=O)NCC(=O)N[C@@H](CO)C(=O)N1CCC[C@H]1C(N)=O)[C@@H](C)O)[C@@H](C)O)[C@@H](C)O
Regarding B7, the half-inhibitory concentration (IC50) is 1.17 nM.
